These results are taken from US20040110933A1.

Assay [1] concerns the target biotinylated CD44Fc (human) (UniProt P16070). Briefly: phage ELISA on b-CD44Fc, no competitor. In general terms: An ELISA detects its analyte on a solid surface through an enzyme-linked reagent.
For assay [2] the target is unchanged. Briefly: competition phage ELISA on b-CD44Fc, competitor S5 (450 ng) pre-incubated.

B1: BE-A11 (Fab displayed on phage) (Fab, V domains shown)
VH: EVQLLESGGGLVQPGGSLRLSCAASGFTFSKYSMEWVRQAPGKGLEWVSRIYPSGGPTLYADSVKGRFTISRDNSKNTLYLQMNSLRAEDTAVYYCARDSYGMDVWGQGTTVTVSS
VL: QSVLTQPASVSGSPGQSITISCTGTSSDVGGYSYVSWYQQHPGKAPKLMIYEVSNRPSGVSNRFSGSKSGNTASLTISGLQAEDEADYYCNSYTSSSTKMFGGGTRLTVL
Regarding B1, in assay [1], the phage ELISA signal (column CD44) was 1.08. For the same molecule, the phage ELISA signal (column CD44 + S5) in assay [2] turned out to be 0.261.
